{
  "source": "patent US20150192588A1",
  "about": "(SAMSUNG ELECTRONICS, published 2015)",
  "biological_target": "T1, human c-Met/Fc fusion protein (R&D Systems) (human, UniProt P08581 25-932)",
  "T1 construct": "Bought reagent, coated on the ELISA plate at 2 ug/mL; also called human c-Met/Fc protein; not shown: Fc part of the bought fusion protein",
  "T1 sequence (P08581 25-932 limits assumed)": "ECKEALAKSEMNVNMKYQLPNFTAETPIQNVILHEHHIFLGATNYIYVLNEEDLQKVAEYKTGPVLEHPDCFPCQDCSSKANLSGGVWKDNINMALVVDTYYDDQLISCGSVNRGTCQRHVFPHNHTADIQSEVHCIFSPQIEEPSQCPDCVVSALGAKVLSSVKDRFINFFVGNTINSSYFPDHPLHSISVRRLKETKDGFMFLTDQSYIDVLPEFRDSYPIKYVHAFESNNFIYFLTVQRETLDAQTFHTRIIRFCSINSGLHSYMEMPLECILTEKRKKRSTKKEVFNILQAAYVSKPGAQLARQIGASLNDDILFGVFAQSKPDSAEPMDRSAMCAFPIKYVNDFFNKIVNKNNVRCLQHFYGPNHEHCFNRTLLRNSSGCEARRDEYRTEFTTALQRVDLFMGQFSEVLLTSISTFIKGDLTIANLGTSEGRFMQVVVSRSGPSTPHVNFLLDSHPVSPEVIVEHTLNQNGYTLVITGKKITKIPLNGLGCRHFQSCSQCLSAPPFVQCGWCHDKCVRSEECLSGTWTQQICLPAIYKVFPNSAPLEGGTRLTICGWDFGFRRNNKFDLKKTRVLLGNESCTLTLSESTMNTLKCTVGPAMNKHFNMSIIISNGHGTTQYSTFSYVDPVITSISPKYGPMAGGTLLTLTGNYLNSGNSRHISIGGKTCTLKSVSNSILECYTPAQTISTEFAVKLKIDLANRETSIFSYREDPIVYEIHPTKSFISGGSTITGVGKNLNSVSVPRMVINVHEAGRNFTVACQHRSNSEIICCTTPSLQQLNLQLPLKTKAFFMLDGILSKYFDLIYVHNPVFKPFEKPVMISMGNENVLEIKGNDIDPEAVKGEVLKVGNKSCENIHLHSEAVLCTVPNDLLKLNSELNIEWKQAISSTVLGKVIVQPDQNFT",
  "assay": "ELISA, human c-Met/Fc coated at 2 ug/mL, hybridoma culture supernatant, anti-mouse IgG-HRP",
  "description": "Human c-Met/Fc fusion protein was seeded in an amount of 50 μL (2 μg/mL)/well to microtiter plates and allowed to adhere to the surface of each well. The antibody that remained unbound was removed by washing.\nThe hybridoma cell culture obtained in Reference Example 1.1.2 was added in an amount of 50 μL to each well of the plates and incubated for 1 hour. The cells remaining unreacted were washed out with a sufficient amount of Tris-buffered saline and Tween 20 (TBST). Goat anti-mouse IgG-horseradish peroxidase (HRP) was added to the plates and incubated for 1 hour at room temperature. The plates were washed with a sufficient amount of TBST, followed by reacting the peroxidase with a substrate (OPD). Absorbance at 450 nm was measured on an ELISA reader.",
  "data": [
    {"binder": "AbF46, mouse monoclonal antibody to c-Met (hybridoma KCLRF-BP-00220) (antibody, V domains shown, In the screening ELISA it stood as hybridoma culture supernatant; The single clone chosen by this screen produces AbF46; also called mouse antibody AbF46) VH: EVKLVESGGGLVQPGGSLRLSCATSGFTFTDYYMSWVRQPPGKALEWLGFIRNKANGYTTEYSASVKGRFTISRDNSQSILYLQMDTLRAEDSATYYCARDNWFAYWGQGTLVTVSA VL: DILMTQSPSSLTVSAGEKVTMSCKSSQSLLASGNQNNYLAWHQQKPGRSPKMLIIWASTRVSGVPDRFIGSGSGTDFTLTINSVQAEDLAVYYCQQSYSAPLTFGAGTKLELK", "values": [
      {"measurement": "binding result", "value": "binds"}
    ]}
  ]
}
